Measurements taken from the supplement of paper PMC11246515.
± gives the standard deviation of the averaged measurements.

Assay: total protein half-life in vivo (active degradation + dilution); higher = more stable protein
[1] = E. coli NCM3722 delta-clpP delta-lon delta-hslV, growth: N-lim chemostat, doubling time 6 h
[2] = E. coli NCM3722 delta-clpP, growth: N-lim chemostat, doubling time 6 h
[3] = E. coli NCM3722 delta-hslV, growth: N-lim chemostat, doubling time 6 h
[4] = E. coli NCM3722 delta-lon, growth: N-lim chemostat, doubling time 6 h
[5] = E. coli NCM3722 delta-smpB, growth: N-lim chemostat, doubling time 6 h
[6] = wild type E. coli NCM3722, growth: C-lim chemostat, doubling time 3 h
[7] = wild type E. coli NCM3722, growth: C-lim chemostat, doubling time 6 h
[8] = wild type E. coli NCM3722, growth: C-lim chemostat, doubling time 12 h
[9] = wild type E. coli NCM3722, growth: N-lim chemostat, doubling time 6 h
[10] = wild type E. coli NCM3722, growth: N-lim chemostat, doubling time 12 h
[11] = wild type E. coli NCM3722, growth: P-lim chemostat, doubling time 6 h
[12] = wild type E. coli NCM3722, growth: P-lim chemostat, doubling time 12 h

Row | Sequence | total protein half-life in vivo [1] [h] | total protein half-life in vivo [2] [h] | total protein half-life in vivo [3] [h] | total protein half-life in vivo [4] [h] | total protein half-life in vivo [5] [h] | total protein half-life in vivo [6] [h] | total protein half-life in vivo [7] [h] | total protein half-life in vivo [8] [h] | total protein half-life in vivo [9] [h] | total protein half-life in vivo [10] [h] | total protein half-life in vivo [11] [h] | total protein half-life in vivo [12] [h]
1 | MVKERKTELVEGFRHSVPYINTHRGKTFVIMLGGEAIEHENFSSIVNDIGLLHSLGIRLVVVYGARPQIDANLAAHHHEPLYHKNIRVTDAKTLELVKQAAGTLQLDITARLSMSLNNTPLQGAHINVVSGNFIIAQPLGVDDGVDYCHSGRIRRIDEDAIHRQLDSGAIVLMGPVAVSVTGESFNLTSEEIATQLAIKLKAEKMIGFCSSQGVTNDDGDIVSELFPNEAQARVEAQEEKGDYNSGTVRFLRGAVKACRSGVRRCHLISYQEDGALLQELFSRDGIGTQIVMESAEQIRRATINDIGGILELIRPLEQQGILVRRSREQLEMEIDKFTIIQRDNTTIACAALYPFPEEKIGEMACVAVHPDYRSSSRGEVLLERIAAQAKQSGLSKLFVLTTRSIHWFQERGFTPVDIDLLPESKKQLYNYQRKSKVLMADLG [P0A6C5] | 4.95 ± 0.5 | 3.02 ± 0.23 | 2.23 ± 0.15 | 3.628 ± 0.028 | 1.13 ± 0.066 | 1.99 ± 0.036 | 3.29 ± 0.41 | 5.24 ± 0.21 | 2.59 ± 0.25 | 4.01 ± 0.54 | 4.56 ± 0.38 | 8.35 ± 0.32
2 | MVKKAIVTAMAVISLFTLMGCNNRAEVDTLSPAQAAELKPMPQSWRGVLPCADCEGIETSLFLEKDGTWVMNERYLGAREEPSSFASYGTWARTADKLVLTDSKGEKSYYRAKGDALEMLDREGNPIESQFNYTLEAAQSSLPMTPMTLRGMYFYMADAATFTDCATGKRFMVANNAELERSYLAARGHSEKPVLLSVEGHFTLEGNPDTGAPTKVLAPDTAGKFYPNQDCSSLGQ | 5.34 ± 0.088 | 5.68 ± 0.11 | 5.99 ± 0.23 | 6.787 ± 0.0084 | 5.976 ± 0.058 | 3.13 ± 0.2 | 6.4 ± 0.79 | 10.7 ± 0.25 | 6.083 ± 0.0085 | 11.5 ± 0.38 | 5.63 ± 0.41 | –
3 | MVLQSTRWLALGYFTYFFSYGIFLPFWSVWLKGIGLTPETIGLLLGAGLVARFLGSLLIAPRVSDPSRLISALRVLALLTLLFAVAFWAGAHVAWLMLVMIGFNLFFSPLVPLTDALANTWQKQFPLDYGKVRLWGSVAFVIGSALTGKLVTMFDYRVILALLTLGVASMLLGFLIRPTIQPQGASRQQESTGWSAWLALVRQNWRFLACVCLLQGAHAAYYGFSAIYWQAAGYSASAVGYLWSLGVVAEVIIFALSNKLFRRCSARDMLLISAICGVVRWGIMGATTALPWLIVVQILHCGTFTVCHLAAMRYIAARQGSEVIRLQAVYSAVAMGGSIAIMTVFAGFLYQYLGHGVFWVMALVALPAMFLRPKVVPSC | – | – | – | 6.67 | 4.51 | – | 2.77 | 10.4 ± 0.17 | – | – | – | –
4 | MVLWQSDLRVSWRAQWLSLLIHGLVAAVILLMPWPLSYTPLWMVLLSLVVFDCVRSQRRINARQGEIRLLMDGRLRWQGQEWSIVKAPWMIKSGMMLRLRSDGGKRQHLWLAADSMDEAEWRDLRRILLQQETQR | 6.03 ± 0.068 | 5.69 | – | 4.15 ± 0.083 | – | 3.47 | 5.64 ± 1.5 | 6.78 | 5.67 | 9.7 | 3.85 ± 0.56 | 7.57
5 | MVRIYTLTLAPSLDSATITPQIYPEGKLRCTAPVFEPGGGGINVARAIAHLGGSATAIFPAGGATGEHLVSLLADENVPVATVEAKDWTRQNLHVHVEASGEQYRFVMPGAALNEDEFRQLEEQVLEIESGAILVISGSLPPGVKLEKLTQLISAAQKQGIRCIVDSSGEALSAALAIGNIELVKPNQKELSALVNRELTQPDDVRKAAQEIVNSGKAKRVVVSLGPQGALGVDSENCIQVVPPPVKSQSTVGAGDSMVGAMTLKLAENASLEEMVRFGVAAGSAATLNQGTRLCSHDDTQKIYAYLSR | 5.23 ± 0.52 | 4.483 ± 0.036 | 4.05 ± 0.088 | 4.74 ± 0.28 | 3.8 ± 0.18 | 3.32 ± 0.21 | 6.09 ± 0.64 | 10.7 ± 1.1 | 4.436 ± 0.02 | 6.92 ± 0.5 | 5.84 ± 0.18 | 11.864 ± 0.0075
6 | MVRRLTSPRLEFEAAAIYEYPEHLRSFLNDLPTRPGVYLFHGESDTMPLYIGKSVNIRSRVLSHLRTPDEAAMLRQSRRISWICTAGEIGALLLEARLIKEQQPLFNKRLRRNRQLCALQLNEKRVDVVYAKEVDFSRAPNLFGLFANRRAALQALQTIADEQKLCYGLLGLEPLSRGRACFRSALKRCAGACCGKESHEEHALRLRQSLERLRVVCWPWQGAVALKEQHPEMTQYHIIQNWLWLGAVNSLEEATTLIRTPAGFDHDGYKILCKPLLSGNYEITELDPANDQRAS | 5.53 ± 1.1 | – | 1.43 | – | 0.89 | 1.06 | – | 1.93 | 1.6 ± 0.079 | – | 1.28 | –
7 | MVSALYAVLSALLLMKFSFDVVRLRMQYRVAYGDGGFSELQSAIRIHGNAVEYIPIAIVLMLFMEMNGAETWMVHICGIVLLAGRLMHYYGFHHRLFRWRRSGMSATWCALLLMVLANLWYMPWELVFSLR | > 8 | – | > 8 | 6.32 | 7.19 ± 0.64 | 3.51 ± 0.12 | 7.27 | 13.7 | – | > 16 | 6.53 ± 0.12 | 13.1 ± 1.1
8 | MVSKPFQRPFSLATRLTFFISLATIAAFFAFAWIMIHSVKVHFAEQDINDLKEISATLERVLNHPDETQARRLMTLEDIVSGYSNVLISLADSQGKTVYHSPGAPDIREFTRDAIPDKDAQGGEVYLLSGPTMMMPGHGHGHMEHSNWRMINLPVGPLVDGKPIYTLYIALSIDFHLHYINDLMNKLIMTASVISILIVFIVLLAVHKGHAPIRSVSRQIQNITSKDLDVRLDPQTVPIELEQLVLSFNHMIERIEDVFTRQSNFSADIAHEIRTPITNLITQTEIALSQSRSQKELEDVLYSNLEELTRMAKMVSDMLFLAQADNNQLIPEKKMLNLADEVGKVFDFFEALAEDRGVELRFVGDKCQVAGDPLMLRRALSNLLSNALRYTPTGETIVVRCQTVDHLVQVIVENPGTPIAPEHLPRLFDRFYRVDPSRQRKGEGSGIGLAIVKSIVVAHKGTVAVTSDARGTRFVITLPA | 6.87 ± 0.17 | 6.49 ± 0.093 | 5.99 ± 1.1 | 5.94 ± 0.29 | 5.79 ± 0.62 | 3.52 ± 0.32 | 6.15 ± 0.53 | 12.5 ± 1.1 | 5.98 ± 0.11 | 11.78 ± 0.088 | 6.28 ± 0.53 | 12.6 ± 0.38
9 | MVSNASALGRNGVHDFILVRATAIVLTLYIIYMVGFFATSGELTYEVWIGFFASAFTKVFTLLALFSILIHAWIGMWQVLTDYVKPLALRLMLQLVIVVALVVYVIYGFVVVWGV [P0AC44] | – | – | 6.12 ± 0.19 | – | – | 3.03 ± 0.042 | 6.01 ± 0.4 | 12 ± 4.5 | 5.87 ± 0.39 | – | – | 12.5
10 | MVSRKRNSVIYRFASLLLVLMLSACSALQGTPQPAPPVTDHPQEIRRDQTQGLQRIGSVSTMVRGSPDDALAEIKAKAVAAKADYYVVVMVDETIVTGQWYSQAILYRK | 5.47 ± 0.3 | 6.25 ± 1 | 7.06 | 6.07 ± 0.52 | 5.58 ± 0.19 | 3.29 ± 0.23 | – | 11.6 ± 1.4 | 6.049 ± 0.053 | – | 7.24 ± 1.1 | 14.8
11 | MVSSFTSAPRSGFYYFAQGWKLVSQPGIRRFVILPLLVNILLMGGAFWWLFTQLDVWIPTLMSYVPDWLQWLSYLLWPLAVISVLLVFGYFFSTIANWIAAPFNGLLAEQLEARLTGATPPDTGIFGIMKDVPRIMKREWQKFAWYLPRAIVLLILYFIPGIGQTVAPVLWFLFSAWMLAIQYCDYPFDNHKVPFKEMRTALRTRKITNMQFGALTSLFTMIPLLNLFIMPVAVCGATAMWVDCYRDKHAMWR [P0A6J3] | 6.46 | – | 5.84 | 6.33 ± 0.76 | 6.144 ± 0.028 | 3.19 ± 0.53 | 5.49 ± 0.6 | 12.3 | 6.67 | 13.7 ± 1.9 | 7.18 | 13.2 ± 0.26
12 | MVTFHTNHGDIVIKTFDDKAPETVKNFLDYCREGFYNNTIFHRVINGFMIQGGGFEPGMKQKATKEPIKNEANNGLKNTRGTLAMARTQAPHSATAQFFINVVDNDFLNFSGESLQGWGYCVFAEVVDGMDVVDKIKGVATGRSGMHQDVPKEDVIIESVTVSE | 4.83 ± 0.65 | 4.38 | 4.92 ± 0.92 | 4.83 ± 0.27 | 4.11 ± 0.046 | 3.3 ± 0.97 | 6.03 ± 0.56 | 9.92 ± 0.88 | 4.507 ± 0.039 | 7.49 ± 1.2 | – | 11.1 ± 0.3
13 | MVTINNARKILQRVDTLPLYLHAYAFHLNMRLERVLPADLLDIASENNLRGVKIHVLDGERFSLGNMDDKELSAFGDKARRLNLDIHIETSASDKASIDEAVAIALKTGASSVRFYPRYEGNLRDVLSIIANDIAYVRETYQDSGLTFTIEQHEDLKSHELVSLVKESEMESLSLLFDFANMINANEHPIDALKTMAPHITQVHIKDALIVKEPGGLGHKACISGQGDMPFKALLTHLICLGDDEPQVTAYGLEEEVDYYAPAFRFEDEDDNPWIPYRQMSETPLPENHLLDARLRKEKEDAINQINHVRNVLQQIKQEANHLLNH | 4.45 ± 0.4 | 2.09 ± 0.14 | 2.28 ± 0.57 | 3.21 | 1.68 ± 0.29 | 1.99 ± 0.052 | 2.9 | 4.36 ± 0.28 | 2.77 | 3.27 ± 0.036 | 2.88 | 4.74 ± 0.53
